Several values for one entry are separate records, joined by “and”; a condition that tells them apart may be missing. Equal entries are not always repeated. Structures can show the parent of a compound that is named as a salt.
Columns and labels:
5HT3a = molecular target: T1, 5HT3a (Homo sapiens, UniProt P46098); experiment: Ion channel panel (IonWorks Barracuda): 5HT3a; assay type: cell-based
T1 construct: host or cells: HEK293 or CHO
T1 sequence (P46098 whole entry, looked up): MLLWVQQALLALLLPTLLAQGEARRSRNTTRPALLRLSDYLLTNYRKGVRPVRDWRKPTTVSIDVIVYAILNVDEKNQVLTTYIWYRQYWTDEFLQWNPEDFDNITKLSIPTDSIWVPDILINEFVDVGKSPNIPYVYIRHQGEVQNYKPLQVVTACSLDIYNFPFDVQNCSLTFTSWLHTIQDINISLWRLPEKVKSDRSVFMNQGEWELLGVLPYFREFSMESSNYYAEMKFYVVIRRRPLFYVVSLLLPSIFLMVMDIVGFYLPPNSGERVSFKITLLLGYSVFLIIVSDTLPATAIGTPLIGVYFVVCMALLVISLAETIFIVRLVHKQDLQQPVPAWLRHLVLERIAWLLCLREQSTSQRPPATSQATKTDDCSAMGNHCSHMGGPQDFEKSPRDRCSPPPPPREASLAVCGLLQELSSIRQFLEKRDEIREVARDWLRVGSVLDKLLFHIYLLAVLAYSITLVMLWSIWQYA
Procedure: (§1) This example describes a method for assaying ion channel activity in cells.
(§2) Peptides were screened in duplicate at final concentrations of 20 μM and 200 nM, as determined by amino acid analysis, and diluted into HEPES buffered physiological saline (HBPS). HEK293 or CHO cells from the American Type Culture Collection (ATCC) were transfected with the appropriate ion channel before use. HEK293 cells were grown in Dulbecco's Modified Eagle Medium/Nutrient Mixture F-12, and CHO cells were cultured in Ham's F-12 media. All cultures were supplemented with 10% fetal bovine serum, 100 U/ml penicillin G, 100 μg/ml streptomycin sulfate, and the appropriate selection antibiotics. Prior to use, cells were washed twice with Hank's Balanced Salt Solution, and treated with Accutase cell detachment solution (Sigma-Aldrich). Cells were then washed. Peptides and controls were incubated with cells for at least five minutes.
(§3) Percent inhibition was defined as: (1-(Ipeptide/Icontrol))×100%).
(§4) Percent values were calculated using the following formula: % activation=(IPeptide/Icontrol)×100%, where IPeptide is the current produced by co-application a peptide with agonist, and Icontrol refers to the current produced by stimulation in control. Control used for each ion channel is the reference compound matched to a particular channel, as illustrated in TABLE 10 below.

α3β4 = molecular target: T2, α3β4 (Homo sapiens, UniProt P30926+P32297); experiment: Ion channel panel (IonWorks Barracuda): α3β4; assay type: cell-based; settings: 100% = no change, <100% = inhibition
T2 construct: host or cells: HEK293 or CHO
Procedure: as §1, §2, §3, §4

α4β2 = molecular target: T3, α4β2 (Homo sapiens, UniProt P17787+P43681); experiment: Ion channel panel (IonWorks Barracuda): α4β2; assay type: cell-based
T3 construct: host or cells: HEK293 or CHO
Procedure: as §1, §2, §3, §4

Cav2.1 = molecular target: T4, Cav2.1 (Homo sapiens, UniProt O00555); experiment: cell-based
T4 construct: host or cells: HEK293 or CHO
T4 sequence (P54289 25-1103): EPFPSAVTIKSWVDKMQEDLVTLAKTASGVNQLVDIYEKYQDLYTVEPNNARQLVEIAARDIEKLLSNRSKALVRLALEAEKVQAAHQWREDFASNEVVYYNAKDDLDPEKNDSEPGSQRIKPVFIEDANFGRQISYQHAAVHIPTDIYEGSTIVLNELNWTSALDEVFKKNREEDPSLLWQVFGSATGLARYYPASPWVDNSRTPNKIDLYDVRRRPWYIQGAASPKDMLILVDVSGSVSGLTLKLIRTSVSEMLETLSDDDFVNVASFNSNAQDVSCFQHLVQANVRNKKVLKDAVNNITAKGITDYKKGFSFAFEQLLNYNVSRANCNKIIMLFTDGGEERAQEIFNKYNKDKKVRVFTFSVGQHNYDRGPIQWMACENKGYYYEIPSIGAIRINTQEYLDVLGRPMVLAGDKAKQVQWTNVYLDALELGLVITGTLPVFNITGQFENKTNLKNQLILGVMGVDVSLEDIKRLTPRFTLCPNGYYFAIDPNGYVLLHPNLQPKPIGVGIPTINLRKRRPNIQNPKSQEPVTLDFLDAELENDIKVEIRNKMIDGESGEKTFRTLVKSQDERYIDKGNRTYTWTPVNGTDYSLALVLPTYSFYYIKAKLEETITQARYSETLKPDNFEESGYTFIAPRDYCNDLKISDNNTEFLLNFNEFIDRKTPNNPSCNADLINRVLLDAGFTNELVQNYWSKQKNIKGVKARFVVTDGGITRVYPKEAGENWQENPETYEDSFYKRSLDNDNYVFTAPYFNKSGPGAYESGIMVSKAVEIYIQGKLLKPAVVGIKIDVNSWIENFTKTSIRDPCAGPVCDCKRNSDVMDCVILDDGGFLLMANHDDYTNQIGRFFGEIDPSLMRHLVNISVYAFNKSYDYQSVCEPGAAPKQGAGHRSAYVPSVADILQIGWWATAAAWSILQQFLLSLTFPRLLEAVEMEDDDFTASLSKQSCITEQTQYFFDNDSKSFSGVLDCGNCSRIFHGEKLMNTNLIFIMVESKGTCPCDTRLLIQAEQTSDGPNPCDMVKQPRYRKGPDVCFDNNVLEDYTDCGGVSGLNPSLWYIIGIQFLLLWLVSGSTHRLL
T4 sequence (O00555 whole entry): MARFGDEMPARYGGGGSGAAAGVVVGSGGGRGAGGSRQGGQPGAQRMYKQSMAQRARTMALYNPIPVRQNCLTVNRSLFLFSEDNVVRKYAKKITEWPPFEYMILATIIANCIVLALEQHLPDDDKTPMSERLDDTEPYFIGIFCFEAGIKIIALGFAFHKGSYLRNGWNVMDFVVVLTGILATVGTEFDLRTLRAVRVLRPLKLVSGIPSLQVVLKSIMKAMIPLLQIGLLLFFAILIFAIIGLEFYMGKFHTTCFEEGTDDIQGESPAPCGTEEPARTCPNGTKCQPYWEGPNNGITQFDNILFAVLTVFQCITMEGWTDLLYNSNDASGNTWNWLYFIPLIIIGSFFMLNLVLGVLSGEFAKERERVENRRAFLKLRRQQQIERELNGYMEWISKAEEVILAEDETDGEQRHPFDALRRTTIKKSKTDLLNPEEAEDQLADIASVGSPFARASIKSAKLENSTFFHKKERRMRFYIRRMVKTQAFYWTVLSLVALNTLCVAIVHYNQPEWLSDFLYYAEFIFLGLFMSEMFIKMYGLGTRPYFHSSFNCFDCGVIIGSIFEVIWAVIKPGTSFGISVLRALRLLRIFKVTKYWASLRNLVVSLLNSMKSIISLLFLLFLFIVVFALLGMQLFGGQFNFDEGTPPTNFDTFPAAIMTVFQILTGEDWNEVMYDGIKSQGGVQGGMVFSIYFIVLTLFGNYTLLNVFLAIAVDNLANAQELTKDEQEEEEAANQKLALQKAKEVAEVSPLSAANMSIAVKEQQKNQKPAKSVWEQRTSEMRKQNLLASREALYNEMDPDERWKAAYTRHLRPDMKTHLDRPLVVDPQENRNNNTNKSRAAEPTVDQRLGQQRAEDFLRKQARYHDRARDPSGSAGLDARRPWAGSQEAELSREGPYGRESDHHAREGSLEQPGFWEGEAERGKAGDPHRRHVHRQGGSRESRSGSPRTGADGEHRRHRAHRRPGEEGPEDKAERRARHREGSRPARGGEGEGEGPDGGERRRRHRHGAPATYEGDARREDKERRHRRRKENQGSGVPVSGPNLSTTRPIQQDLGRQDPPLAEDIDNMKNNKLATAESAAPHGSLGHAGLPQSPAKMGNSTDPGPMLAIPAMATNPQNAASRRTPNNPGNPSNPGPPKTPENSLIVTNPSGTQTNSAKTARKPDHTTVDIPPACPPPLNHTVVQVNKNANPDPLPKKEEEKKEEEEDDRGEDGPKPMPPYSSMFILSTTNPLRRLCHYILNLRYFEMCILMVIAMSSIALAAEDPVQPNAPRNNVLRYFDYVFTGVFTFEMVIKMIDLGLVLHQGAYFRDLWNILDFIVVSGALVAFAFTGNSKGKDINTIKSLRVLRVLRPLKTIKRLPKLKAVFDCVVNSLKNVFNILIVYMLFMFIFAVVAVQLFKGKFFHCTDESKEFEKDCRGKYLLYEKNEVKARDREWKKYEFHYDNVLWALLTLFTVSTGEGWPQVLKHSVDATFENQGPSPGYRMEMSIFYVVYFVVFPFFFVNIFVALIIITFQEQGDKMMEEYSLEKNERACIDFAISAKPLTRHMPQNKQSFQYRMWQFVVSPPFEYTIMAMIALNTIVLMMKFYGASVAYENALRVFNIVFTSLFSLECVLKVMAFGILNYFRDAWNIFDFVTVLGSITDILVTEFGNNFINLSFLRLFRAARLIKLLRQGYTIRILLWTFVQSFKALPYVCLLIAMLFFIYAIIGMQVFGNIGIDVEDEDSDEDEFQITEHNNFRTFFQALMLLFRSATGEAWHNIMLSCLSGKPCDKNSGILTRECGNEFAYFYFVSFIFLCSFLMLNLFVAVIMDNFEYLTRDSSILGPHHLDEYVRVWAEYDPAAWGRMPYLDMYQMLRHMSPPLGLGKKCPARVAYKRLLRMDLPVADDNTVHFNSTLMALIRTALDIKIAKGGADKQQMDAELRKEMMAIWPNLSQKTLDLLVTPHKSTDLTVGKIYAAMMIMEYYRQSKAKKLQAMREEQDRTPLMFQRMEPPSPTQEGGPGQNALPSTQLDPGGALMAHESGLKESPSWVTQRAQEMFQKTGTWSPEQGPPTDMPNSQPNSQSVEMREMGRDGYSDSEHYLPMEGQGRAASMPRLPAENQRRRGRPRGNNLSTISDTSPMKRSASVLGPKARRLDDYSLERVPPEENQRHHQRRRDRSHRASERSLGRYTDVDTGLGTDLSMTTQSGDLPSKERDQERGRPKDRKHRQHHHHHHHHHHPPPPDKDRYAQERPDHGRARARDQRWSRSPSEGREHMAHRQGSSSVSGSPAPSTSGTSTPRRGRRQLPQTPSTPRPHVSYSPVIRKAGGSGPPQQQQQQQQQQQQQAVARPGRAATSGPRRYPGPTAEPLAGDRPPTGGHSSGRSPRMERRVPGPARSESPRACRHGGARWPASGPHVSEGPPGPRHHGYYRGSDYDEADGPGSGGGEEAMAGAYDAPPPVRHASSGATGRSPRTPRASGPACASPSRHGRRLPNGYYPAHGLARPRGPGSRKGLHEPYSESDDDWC
Procedure: as §1, §2, §3, §4

Cav2.2 = molecular target: T5, Cav2.2 (Homo sapiens, UniProt Q00975); experiment: cell-based
T5 construct: host or cells: HEK293 or CHO
Procedure: as §1, §2, §3, §4

Kv2.1 = molecular target: T6, Kv2.1 (Homo sapiens, UniProt Q14721); experiment: cell-based
T6 construct: host or cells: HEK293 or CHO
T6 sequence (Q14721 whole entry): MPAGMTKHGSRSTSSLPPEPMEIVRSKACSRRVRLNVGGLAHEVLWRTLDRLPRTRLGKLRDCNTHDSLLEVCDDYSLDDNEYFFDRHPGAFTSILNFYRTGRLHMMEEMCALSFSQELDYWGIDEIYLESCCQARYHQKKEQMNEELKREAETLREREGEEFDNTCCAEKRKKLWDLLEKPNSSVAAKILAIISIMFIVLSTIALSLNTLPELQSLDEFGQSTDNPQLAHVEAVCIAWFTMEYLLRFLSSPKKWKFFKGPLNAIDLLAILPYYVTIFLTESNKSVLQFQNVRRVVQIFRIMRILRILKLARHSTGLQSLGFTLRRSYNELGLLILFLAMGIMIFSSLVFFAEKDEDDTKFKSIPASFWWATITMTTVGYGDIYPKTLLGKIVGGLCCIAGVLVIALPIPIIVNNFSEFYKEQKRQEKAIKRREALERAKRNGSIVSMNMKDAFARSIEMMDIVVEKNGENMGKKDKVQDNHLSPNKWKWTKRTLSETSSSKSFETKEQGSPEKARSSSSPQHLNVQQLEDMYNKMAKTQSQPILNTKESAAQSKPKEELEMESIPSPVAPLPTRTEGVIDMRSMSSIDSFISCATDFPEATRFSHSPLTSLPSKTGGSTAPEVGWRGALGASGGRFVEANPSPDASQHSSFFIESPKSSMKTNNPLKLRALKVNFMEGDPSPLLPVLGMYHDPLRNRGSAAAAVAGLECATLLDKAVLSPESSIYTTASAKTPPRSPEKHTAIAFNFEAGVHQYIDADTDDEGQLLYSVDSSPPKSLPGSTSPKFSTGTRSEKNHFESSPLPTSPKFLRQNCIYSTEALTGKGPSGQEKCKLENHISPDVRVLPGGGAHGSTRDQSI
Procedure: as §1, §2, §3, §4

GABA = experiment: Ion channel panel (IonWorks Barracuda): GABA; assay type: cell-based
Procedure: as §1, §2, §3, §4

Nav1.5 = Nav1.5 (Homo sapiens, UniProt Q14524); experiment: in vitro; settings: 100% = no change; for Activity of Nav1.5 with peptide, expressed as a percentage of the reference compound: peptide at 0.2 μM; for Activity of Nav1.5 with peptide (percentage of the reference compound): peptide at 20 μM
Procedure: as §1, §2, §3, §4

hERG = hERG (Homo sapiens, UniProt Q12809); experiment: in vitro; settings: 100% = no change, <100% = inhibition
Procedure: as §1, §2, §3, §4

Kir2.1 = molecular target: T7, Kir2.1 (Homo sapiens, UniProt P63252); experiment: Ion channel panel (IonWorks Barracuda): Kir2.1; assay type: cell-based
T7 construct: host or cells: HEK293 or CHO
T7 sequence (P63252 whole entry): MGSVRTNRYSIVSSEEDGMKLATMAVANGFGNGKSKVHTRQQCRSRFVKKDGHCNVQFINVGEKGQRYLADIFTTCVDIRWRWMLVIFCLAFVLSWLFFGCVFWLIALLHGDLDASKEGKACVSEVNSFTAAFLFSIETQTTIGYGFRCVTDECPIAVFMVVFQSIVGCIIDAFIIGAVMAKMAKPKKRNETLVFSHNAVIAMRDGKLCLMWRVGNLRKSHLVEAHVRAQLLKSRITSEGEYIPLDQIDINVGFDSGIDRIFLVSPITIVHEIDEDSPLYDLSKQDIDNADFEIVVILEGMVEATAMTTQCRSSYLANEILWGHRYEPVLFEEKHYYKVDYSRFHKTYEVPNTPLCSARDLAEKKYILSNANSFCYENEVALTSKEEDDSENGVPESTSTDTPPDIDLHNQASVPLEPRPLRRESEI
Procedure: as §1, §2, §3, §4

Kv1.1 = molecular target: T8, Kv1.1 (Homo sapiens, UniProt Q09470); experiment: cell-based; assay type: cell-based; settings: 100% = no change, <100% = inhibition
T8 construct: host or cells: HEK293 or CHO
Procedure: as §1, §2, §3, §4

Kv1.2 = molecular target: T9, Kv1.2 (Homo sapiens, UniProt P16389); experiment: cell-based; assay type: cell-based; settings: 100% = no change, <100% = inhibition
T9 construct: host or cells: HEK293 or CHO
Procedure: as §1, §2, §3, §4

Kv1.3 = molecular target: T10, Kv1.3 (Homo sapiens, UniProt P22001); experiment: cell-based; assay type: cell-based; settings: for Kv1.3 inhibition: 0.2 or 20 μM, FIG. 2
T10 construct: host or cells: HEK293 or CHO
Procedure: as §1, §2, §3, §4

Nav1.7 = molecular target: T11, Nav1.7 (Homo sapiens, UniProt Q15858); experiment: cell-based; assay type: cell-based; settings: for Activity of Nav1.7 with peptide, expressed as a percentage of the reference compound: peptide at 0.2 μM; for Activity of Nav1.7 with peptide, expressed as a percentage of the reference compound / Activity of Nav1.7 with peptide (percentage of the reference compound): 100% = no change; for Activity of Nav1.7 with peptide (percentage of the reference compound): peptide at 20 μM
T11 construct: host or cells: HEK293 or CHO
Procedure: as §1
as §2, with “Peptides were screened in duplicate at final concentrations of 20 μM and 200 nM, as determined by amino acid analysis, and diluted into HEPES buffered physiological saline (HBPS).” left out
as §3, §4

NR2A = molecular target: T12, NR2A (Homo sapiens, UniProt Q12879); experiment: Ion channel panel (IonWorks Barracuda): NR2A; assay type: cell-based; settings: 100% = no change, <100% = inhibition
T12 construct: host or cells: HEK293 or CHO
Procedure: as §1, §2, §3, §4

NR2B = molecular target: T13, NR2B (Homo sapiens, UniProt Q13224); experiment: Ion channel panel (IonWorks Barracuda): NR2B; assay type: cell-based; settings: 100% = no change, <100% = inhibition
T13 construct: host or cells: HEK293 or CHO
Procedure: as §1, §2, §3, §4

TRPA1 = molecular target: T14, TRPA1 (Homo sapiens, UniProt O75762); experiment: Ion channel panel (IonWorks Barracuda): TRPA1; assay type: cell-based; settings: 100% = no change, <100% = inhibition
T14 construct: host or cells: HEK293 or CHO
Procedure: as §1, §2, §3, §4

TRPV1 = molecular target: T15, TRPV1 (Homo sapiens, UniProt Q8NER1); experiment: Ion channel panel (IonWorks Barracuda): TRPV1; assay type: cell-based
T15 construct: host or cells: HEK293 or CHO
Procedure: as §1, §2, §3, §4

[1] = peptide at 0.2 μM, 100% = no change, <100% = inhibition
[2] = peptide at 20 μM, 100% = no change, <100% = inhibition
[3] = first of two Nav1.5 columns (probably TP1)
[4] = second of two Nav1.5 columns (probably TP2)
[5] = first of two Nav1.7 columns (probably TP1)
[6] = second of two Nav1.7 columns (probably TP2)

Compound: 2 (GSEVIRCSGSKQCYGPCKQQTGCTNSKCMNKVCKCYGCG) [compound 2]
- Activity of 5HT3a with peptide (percentage of the reference compound) (5HT3a): 88%
- Activity of 5HT3a with peptide, expressed as a percentage of the reference compound (5HT3a): 92%
- Activity of a3b4 with peptide, expressed as a percentage of the reference compound (α3β4; peptide at 0.2 μM): 85%
- Activity of a3b4 with peptide (percentage of the reference compound) (α3β4; peptide at 20 μM): 88%
- Activity of a4b2 with peptide, expressed as a percentage of the reference compound (α4β2; [1]): 95%
- Activity of a4b2 with peptide (percentage of the reference compound) (α4β2; [2]): 87%
- Activity of Cav2.1 with peptide, expressed as a percentage of the reference compound (Cav2.1; [1]): 103%
- Activity of Cav2.1 with peptide (percentage of the reference compound) (Cav2.1; [2]): 108%
- Activity of Cav2.2 with peptide, expressed as a percentage of the reference compound (Cav2.2; [1]): 104%
- Activity of Cav2.2 with peptide (percentage of the reference compound) (Cav2.2; [2]): 104%
- Activity of Kv2.1 with peptide, expressed as a percentage of the reference compound (Kv2.1; [1]): 80%
- Activity of Kv2.1 with peptide (percentage of the reference compound) (Kv2.1; [2]): 87%
- Activity of GABA with peptide, expressed as a percentage of the reference compound (GABA; [1]): 104%
- Activity of GABA with peptide (percentage of the reference compound) (GABA; [2]): 97%
- Activity of Nav1.5 with peptide, expressed as a percentage of the reference compound (Nav1.5; [3]): 95%
- Activity of Nav1.5 with peptide, expressed as a percentage of the reference compound (Nav1.5; [4]): 93%
- Activity of Nav1.5 with peptide (percentage of the reference compound) (Nav1.5; [3]): 102%
- Activity of Nav1.5 with peptide (percentage of the reference compound) (Nav1.5; [4]): 101%
- Activity of hERG with peptide, expressed as a percentage of the reference compound (hERG; peptide at 0.2 μM): 97%
- Activity of hERG with peptide (percentage of the reference compound) (hERG; peptide at 20 μM): 76%
- Activity of Kir2.1 with peptide, expressed as a percentage of the reference compound (Kir2.1; [1]): 101%
- Activity of Kir2.1 with peptide (percentage of the reference compound) (Kir2.1; [2]): 89%
- Activity of Kv1.1 with peptide, expressed as a percentage of the reference compound (Kv1.1; peptide at 0.2 μM): 114%
- Activity of Kv1.1 with peptide (percentage of the reference compound) (Kv1.1; peptide at 20 μM): 68%
- Activity of Kv1.2 with peptide, expressed as a percentage of the reference compound (Kv1.2; peptide at 0.2 μM): 34%
- Activity of Kv1.2 with peptide (percentage of the reference compound) (Kv1.2; peptide at 20 μM): 39%
- Activity of Kv1.3 with peptide, expressed as a percentage of the reference compound (Kv1.3; [1]): 8%
- Activity of Kv1.3 with peptide (percentage of the reference compound) (Kv1.3; [2]): 1%
- Activity of Nav1.7 with peptide, expressed as a percentage of the reference compound (Nav1.7; [5]): 89%
- Activity of Nav1.7 with peptide, expressed as a percentage of the reference compound (Nav1.7; [6]): 74%
- Activity of Nav1.7 with peptide (percentage of the reference compound) (Nav1.7; [5]): 61%
- Activity of Nav1.7 with peptide (percentage of the reference compound) (Nav1.7; [6]): 91%
- Activity of NR2A with peptide, expressed as a percentage of the reference compound (NR2A; peptide at 0.2 μM): 102%
- Activity of NR2A with peptide (percentage of the reference compound) (NR2A; peptide at 20 μM): 95%
- Activity of NR2B with peptide, expressed as a percentage of the reference compound (NR2B; peptide at 0.2 μM): 118%
- Activity of NR2B with peptide (percentage of the reference compound) (NR2B; peptide at 20 μM): 72%
- Activity of TRPA1 with peptide, expressed as a percentage of the reference compound (TRPA1; peptide at 0.2 μM): 106%
- Activity of TRPA1 with peptide (percentage of the reference compound) (TRPA1; peptide at 20 μM): 92%
- Activity of TRPV1 with peptide, expressed as a percentage of the reference compound (TRPV1; [1]): 95%
- Activity of TRPV1 with peptide (percentage of the reference compound) (TRPV1; [2]): 81%

Compound: [Ba+2].[Cl-].[Cl-] [BaCl2, reference compound]
- IC50 (Kir2.1; Kir2.1, read-out: IC50 of receptor/channel inhibition with reference compound): 5.25 µM

Compound: Oc1cc2c(cc1O)CN(C(=S)NCCc1ccc(Cl)cc1)CCC2 [Capsazepine, reference compound]
- IC50 (TRPV1): 0.09 µM

Compound: CCN(CC)CC(=O)Nc1c(C)cccc1C [Lidocaine, reference compound]
- IC50 (Nav1.7; IC50 of receptor/channel inhibition with reference compound): 465 µM and 285 µM

Compound: CNC1(C)C2CCC(C2)C1(C)C (stereo not drawn) [Mecamylamine, reference compound]
- IC50 (α4β2; α4β2, read-out: IC50 of receptor/channel inhibition with reference compound): 1.14 µM

Compound: COCC(=O)O[C@]1(CCN(C)CCCc2nc3ccccc3[nH]2)CCc2cc(F)ccc2[C@@H]1C(C)C [Mibefradil dihydrochloride, reference compound]
- IC50 (Cav2.1; Cav2.1, read-out: IC50 of receptor/channel inhibition with reference compound): 2.12 µM
- IC50 (Cav2.2; Cav2.2, read-out: IC50 of receptor/channel inhibition with reference compound): 8.28 µM

Compound: COc1ccc(CCN(C)CCCC(C#N)(c2ccc(OC)c(OC)c2)C(C)C)cc1OC (stereo not drawn) [Verapamil, reference compound]
- IC50 (Kv2.1): 78 µM

Compound: GSECLEIFKACNPSNDQCCKSSKLVCSRKTRWCKYQIG [SEQ ID NO: 31]
- Activity against Nav1.7 channels (Nav1.7; 0.2 or 20 μM, FIG. 2): showed activity on tetrodotoxin-sensitive sodium channels (e.g., Nav1.7)

Compound: GSGVPTDVKCRGSPQCIQPCKDAGMRFGKCMNGKCHCTPK [SEQ ID NO: 39]
- Kv1.3 inhibition (Kv1.3): showed strong Kv1.3 inhibition

Compound: GSQFTDVKCTGSKQCWPVCKQMFGKPNGKCMNGKCRCYS [SEQ ID NO: 19]
- Kv1.3 inhibition (Kv1.3): showed strong Kv1.3 inhibition

Compound: Picrotoxin [reference compound]
- IC50 (GABA; GABA, read-out: IC50 of receptor/channel inhibition with reference compound): 1.72 µM

Reference: patent publication US20200262877A1, “ION CHANNEL-BINDING PEPTIDES AND METHODS OF USE THEREOF” (priority 2017, published 2020)
